# Laboratory results published in IntAct's records for PubMed 19013157.
# B1: Trimethylamine-N-oxide reductase 1 (Escherichia coli (strain K12)), P33225 (parent)
# chain: MNNNDLFQASRRRFLAQLGGLTVAGMLGPSLLTPRRATAAQAATDAVISKEGILTGSHWGAIRATVKDGRFVAAKPFELDKYPSKMIAGLPDHVHNAARIRYPMVRVDWLRKRHLSDTSQRGDNRFVRVSWDEALDMFYEELERVQKTHGPSALLTASGWQSTGMFHNASGMLAKAIALHGNSVGTGGDYSTGAAQVILPRVVGSMEVYEQQTSWPLVLQNSKTIVLWGSDLLKNQQANWWCPDHDVYEYYAQLKAKVAAGEIEVISIDPVVTSTHEYLGREHVKHIAVNPQTDVPLQLALAHTLYSENLYDKNFLANYCVGFEQFLPYLLGEKDGQPKDAAWAEKLTGIDAETIRGLARQMAANRTQIIAGWCVQRMQHGEQWAWMIVVLAAMLGQIGLPGGGFGFGWHYNGAGTPGRKGVILSGFSGSTSIPPVHDNSDYKGYSSTIPIARFIDAILEPGKVINWNGKSVKLPPLKMCIFAGTNPFHRHQQINRIIEGLRKLETVIAIDNQWTSTCRFADIVLPATTQFERNDLDQYGNHSNRGIIAMKQVVPPQFEARNDFDIFRELCRRFNREEAFTEGLDEMGWLKRIWQEGVQQGKGRGVHLPAFDDFWNNKEYVEFDHPQMFVRHQAFREDPDLEPLGTPSGLIEIYSKTIADMNYDDCQGHPMWFEKIERSHGGPGSQKYPLHLQSVHPDFRLHSQLCESETLRQQYTVAGKEPVFINPQDASARGIRNGDVVRVFNARGQVLAGAVVSDRYAPGVARIHEGAWYDPDKGGEPGALCKYGNPNVLTIDIGTSQLAQATSAHTTLVEIEKYNGTVEQVTAFNGPVEMVAQCEYVPASQVKS
# partner: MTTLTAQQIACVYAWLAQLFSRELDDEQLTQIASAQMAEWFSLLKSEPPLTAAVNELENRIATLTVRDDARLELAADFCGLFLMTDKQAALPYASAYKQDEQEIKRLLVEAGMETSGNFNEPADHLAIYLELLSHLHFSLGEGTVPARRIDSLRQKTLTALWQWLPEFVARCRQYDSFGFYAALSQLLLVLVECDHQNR
# B2: Chaperone protein TorD (Escherichia coli (strain K12)), P36662 (parent)
# chain: B1 partner
# Variants of: B1
# Conditions: with tord_ecoli torD
row,Variant,effect of a mutation on the interaction
1,G19Q,decreasing interaction

# Variants of: B1
# Conditions: with tord_ecoli torD
# Remark: another data set of the same source
row,Variant,effect of a mutation on the interaction
1,T22Q,increasing interaction

# Variants of: B1
# Conditions: with tord_ecoli torD
# Remark: another data set of the same source
row,Variant,effect of a mutation on the interaction
1,V23Q,decreasing interaction

# Variants of: B1
# Conditions: with tord_ecoli torD
# Remark: another data set of the same source
row,Variant,effect of a mutation on the interaction
1,L27Q,disrupting interaction

# Variants of: B1
# Conditions: with tord_ecoli torD
# Remark: another data set of the same source
row,Variant,effect of a mutation on the interaction
1,G28Q,decreasing interaction

# Variants of: B1
# Conditions: with tord_ecoli torD
# Remark: another data set of the same source
row,Variant,effect of a mutation on the interaction
1,L31Q,disrupting interaction

# Variants of: B1
# Conditions: with tord_ecoli torD
# Remark: another data set of the same source
row,Variant,effect of a mutation on the interaction
1,L31Q,decreasing interaction

# Variants of: B1
# Conditions: with tord_ecoli torD
# Remark: another data set of the same source
row,Variant,effect of a mutation on the interaction
1,L32Q,disrupting interaction

# Variants of: B2
# Conditions: with tora_ecoli torA
row,Variant,effect of a mutation on the interaction
1,Q7L,increasing interaction
2,F180L,increasing interaction
3,L189Q,increasing interaction

# Variants of: B2
# Conditions: with tora_ecoli torA
# Remark: another data set of the same source
row,Variant,effect of a mutation on the interaction
1,F180L,decreasing interaction

# Variants of: B2
# Conditions: with tora_ecoli torA
# Remark: another data set of the same source
row,Variant,effect of a mutation on the interaction
1,L189Q,decreasing interaction

# Variants of: B2
# Conditions: with tora_ecoli torA
# Remark: another data set of the same source
row,Variant,effect of a mutation on the interaction
1,Q186L,increasing interaction
